The target of the assay is Lys^B29Atto655-insulin aspart (human) (UniProt P01308). Kind of assay: single-molecule TIRF microscopy; 10 nM labelled insulin in solution binding to labelled insulin nonspecifically immobilised on a PLL-PEG passivated surface; no Zn^2+, no phenol; 10 mM Na2HPO4, 10 mM NaH2PO4, 5 mM NaCl, pH 7.32, room temperature; seven-state HMM, rate constants of each step between monomer and hexamer (kij: state i to state j).

Regarding “Lys^B29Atto655-insulin aspart (from UniProt P01308 90-110; P01308 25-54) (natural protein)”, the k24 (association rate constant, dimer to tetramer) came to 2e+08 M⁻¹ s⁻¹ and the k31 (dissociation rate constant, trimer to monomer) was 0.062 s⁻¹.

The values are drawn from paper PMC9932072.
